# From IntAct's records for PubMed 18812496
# B1: Plastid division protein PDV2 (Arabidopsis thaliana (Mouse-ear cress)), Q9XII1 (parent)
# chain: MEDEEGIGLILARATELRLKISDCIDNSSTTVSDNGDGNEDLSPGEGRKSEIIGNQDKDFDSISSEDVDEAEAERLLRIRDALEALESQLASLQNLRQRQQYEKQLALSEIDYSRKMLLEKLKEYKGKDFEVLRETTTFAGERVDYENDLLLPPYPVHPPLSLGLDNNNGYLSHLPSKKKSDANGFGSGHVRNEAEAKSPNGGSGGSSHGVIRFLGSVAKIVLPIIGVISLLSASGYGPEMRKRGASLNLFGLLPHRATRGKRTPNQCPPGKVLVIEDGEARCLVKERVEIPFDSVVAKRDVTYGYG
# partner: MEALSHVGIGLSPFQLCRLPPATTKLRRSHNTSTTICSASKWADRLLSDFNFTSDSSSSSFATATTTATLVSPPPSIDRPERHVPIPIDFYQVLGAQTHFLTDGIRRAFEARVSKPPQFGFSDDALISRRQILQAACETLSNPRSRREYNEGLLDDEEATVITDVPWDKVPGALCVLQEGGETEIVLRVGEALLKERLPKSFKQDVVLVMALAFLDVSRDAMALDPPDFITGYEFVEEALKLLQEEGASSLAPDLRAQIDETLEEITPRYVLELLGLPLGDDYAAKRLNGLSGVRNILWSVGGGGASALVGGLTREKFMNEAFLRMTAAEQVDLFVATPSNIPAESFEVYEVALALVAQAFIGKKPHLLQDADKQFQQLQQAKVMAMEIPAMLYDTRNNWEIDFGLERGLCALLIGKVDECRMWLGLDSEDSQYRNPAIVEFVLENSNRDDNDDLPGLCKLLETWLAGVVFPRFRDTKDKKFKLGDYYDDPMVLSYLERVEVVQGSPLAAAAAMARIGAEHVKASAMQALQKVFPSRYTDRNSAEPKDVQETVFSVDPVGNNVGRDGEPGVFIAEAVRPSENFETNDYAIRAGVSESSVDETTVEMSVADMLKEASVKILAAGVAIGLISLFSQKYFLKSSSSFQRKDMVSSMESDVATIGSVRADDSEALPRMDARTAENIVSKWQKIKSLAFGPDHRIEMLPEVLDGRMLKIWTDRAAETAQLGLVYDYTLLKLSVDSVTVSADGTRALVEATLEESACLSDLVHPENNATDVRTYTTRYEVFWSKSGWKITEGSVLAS
# Variants of: B1
# Details: with arc6_arath ARC6, Q9FIG9
row,Variant,effect of a mutation on the interaction
1,MEDEEGIGLILARATELRLKISDCIDNSSTTVSDNGDGNEDLSPGEGRKSEIIGNQDKDFDSISSEDVDEAEAERLLRIRDALEALESQLASLQNLRQRQQYEKQLALSEIDYSRKMLLEKLKEYKGKDFEVLRETTTFAGERVDYENDLLLPPYPVHPPLSLGLDNNNGYLSHLPSKKKSDANGFGSGHVRNEAEAKSPNGGSGGSSHGVIRFLGSVAKIVLPIIGVISLLSASGYGPEMRKRGASLNLFGLLPHRATRGKRTPNQCPPGKVLVIEDGEARCLVKERVEIPFDSVVAKRDVTYGYD [G307D],decreasing interaction
